Measurements published in article doi:10.1101/2021.12.11.472236 (bioRxiv, 2021).
Values joined by “and” are separate entries in the source; they are usually repeats but may differ in a detail not shown here. Equal values may be shown once.

Key:
[1] = molecular target: S2P-prefusion-stabilized spike protein from SARS-CoV-2 WA-1 (SARS-CoV-2, WA-1, UniProt P0DTC2, stabilised); experiment: cryo-EM structure
[2] = molecular target: S2P-prefusion-stabilized spike protein from SARS-CoV-2 B.1.351 (SARS-CoV-2, B.1.351 (Beta), strain); experiment: cryo-EM structure

B1: 10-28 Fab (Fab, V domains shown)
VH: QVQLVESGGGVVQPGRSLRLSCAASGFTFSSYDMHWVRQAPGKGLEWVAVISYDGSSKFYAESVKGRFTISRDNSKNTLYLQMNSLRAEETAVYYCVKDGEQLVPLFDYWGQGTLVTVSS
VL: not shown
binding result [1]: binds | stoichiometry N [2]: 3 Fabs per spike

B2: 11-11 Fab (Fab, V domains shown)
VH: QVQLQESGPGLVKPSQTLSLTCTVSGGSISSGGYYWSWIRQHPGKGLEWIGYIYYSGSTYYNPSLKSRVTISVDTSKNQFSLKVSSVTAADTAVYYCASSNYYDGSGYNLLESYGMDVWGQGTSVTVSS
VL: QSVLTQPPSVSGAPGQRVTISCTGSSSNIGAGYDVHWYQQLPGTAPKLLIYGNSNRPSGVPDRFSGSRSGTSASLAITGLQAEDEADYYCQSYDSSLSGSWVFGGGTKVTVL
binding result [1]: binds | stoichiometry N [2]: 3 Fabs per spike and 2 Fabs per spike

B3: 10-40 Fab (Fab, V domains shown)
VH: QLQLQESGPGLVKPSETLSLTCTVSGGSISSSNFYWGWIRQPPGKGLEWIASITYSGRTFYNPSLKSRVAISVDTSKNQFSLKLSSVTAADTAVYYCARTFPSYYDRSGYHYLNYGMDVWGQGTTVTVSS
VL: NFMLTQPHSMSESPGKTVTISCTRSSGSIASNYVQWYQQRPGSSPTTVIYEDNQRPSGVPDRFSGSIDSSSNSASLTISGLKTEDEADYYCQSYDSSSWVFGGGTKLTVL
binding result [1]: binds | stoichiometry N [2]: 3 Fabs per spike
